In patent US20060270599A1, “Inhibiting angiogenesis using molecules that enhance plasmin formation or prolong plasmin activity” (Crossbeta Biosciences B.V., priority 2000, published 2006):

B1: tPA: Alteplase (recombinant tPA), tissue plasminogen activator (protein, UniProt P00750 36-562, looked up)
Tissue-type plasminogen …: SYQVICRDEKTQMIYQQHQSWLRPVLRSNRVEYCWCNSGRAQCHSVPVKSCSEPRCFNGGTCQQALYFSDFVCQCPEGFAGKCCEIDTRATCYEDQGISYRGTWSTAESGAECTNWNSSALAQKPYSGRRPDAIRLGLGNHNYCRNPDRDSKPWCYVFKAGKYSSEFCSTPACSEGNSDCYFGNGSAYRGTHSLTESGASCLPWNSMILIGKVYTAQNPSAQALGLGKHNYCRNPDGDAKPWCHVLKNRRLTWEYCDVPSCSTCGLRQYSQPQFRIKGGLFADIASHPWQAAIFAKHRRSPGERFLCGGILISSCWILSAAHCFQERFPPHHLTVILGRTYRVVPGEEEQKFEVEKYIVHKEFDDDTYDNDIALLQLKSDSSRCAQESSVVRTVCLPPADLQLPDWTECELSGYGKHEALSPFYSERLKEAHVRLYPSSRCTSQHLLNRTVTDNMLCAGDTRSGGPQANLHDACQGDSGGPLVCLNDGRMTLVGIISWGLGCGQKDVPGVYTKVTNYLDWIRDNMRP
B2: endostatin: Recombinant murine endostatin produced by Escherichia coli (protein, UniProt P39061 1591-1774, looked up)
Endostatin: HTHQDFQPVLHLVALNTPLSGGMRGIRGADFQCFQQARAVGLSGTFRAFLSSRLQDLYSIVRRADRGSVPIVNLKDEVLSPSWDSLFSGSQGQLQPGARIFSFDGRDVLRHPAWPQKSVWHGSDPSGRRLMESYCETWRTETTGATGQASSLLSGRLLEQKAASCHNSYIVLCIENSFMTSFSK
modifications: Endostatin
notes: Recombinant murine endostatin produced by Escherichia coli

Assays:
[1] = system: mouse C26 colon carcinoma; experiment: Subcutaneous tumor growth of mouse C26 colon carcinoma; assay type: in vivo; settings: BALB/c mice, eleven days after tumor cell inoculation, mean ± standard error of the mean, control 2719±366
Procedure: FIG. 1: Effect of fibrin degradation products (FDP) on tumor growth. For comparison, treatments with Alteplase® (recombinant tPA) or endostatin is shown. FDP was given continuously using Alzet® pumps (Alza, Palo Alto, Calif., USA, type 2001 or 2002) loaded with 200 μl FDP (5 mg/ml). In addition, every other day, FDP was given subcutaneously at a dose of 7 mg/kg.
A model of subcutaneous tumor growth of a mouse C26 colon carcinoma was used to evaluate the effects of FDP. Eleven days after tumor cell inoculation, tumors of the control group had reached a volume of 2719±366 mm^3. In mice treated with FDP, the mean tumor growth was 719±188 mm^3. […] Treatment with tPA, which generates plasmin, suppressed tumor growth to a similar degree (tumor volume 492±215 mm^3) as FDP.
The mouse colon adenocarcinoma cell line C-26 was maintained as a monolayer culture in Dulbecco's Minimal Essential Medium (DMEM) supplemented with 10% heat-inactivated fetal calf serum, penicillin (100 units/ml), and streptomycin (100 μg/ml) in a 5% CO2 environment. […] The presence of single cell suspension was confirmed by phase contrast microscopy, and cell viability was determined by trypan blue staining. […]
The statistical significance of differences between groups was calculated by applying Student's 2-tailed t-test. […]

[2] = biological target: tPA-mediated plasmin formation from plasminogen (Homo sapiens, UniProt P00750); experiment: Measurement of plasmin activity (tPA-mediated plasmin generation, S-2251); assay type: biochemical; settings: 50 μg/ml plasminogen, 30 U/ml tPA, 37° C. (FIG. 3)
Procedure: FIG. 3: Effect on plasmin activity of (A) endostatin, (B) human vitronectin fragment+(a.a. 262-367) (SEQ ID NO:1), (C) FDP, and (D) peptide derived from FDP (a.a. 148-160) (SEQ ID NO: 2).
Effect of FDP, FDP-derived synthetic peptide (a.a. 148-160) (SEQ ID NO:2), fragment (a.a. 262-367) vitronectin (SEQ ID NO:1), and endostatin on plasmin generation. Various concentrations were added.
Reactions were performed at 37° C. in HBS buffer (20 mM Hepes, 4 mM KCl, 137 mM NaCl, 3 mM CaCl2, 0.1% BSA, pH 7.4) containing 50 μg/ml plasminogen with or without the addition of endostatin or FDP. The reactions were started by the addition of tPA at a final concentration of 30 U/ml. At several time points, 20 μl samples were taken and stopped with 20 μl buffer containing 150 mM εACA and 150 mM EDTA. Plasmin activity was determined in 96-well plates after the addition of 20 μl chromogenic substrate S-2251 at a final concentration of 1.6 mM. Increase in absorbance was measured at 405 nm for 10 min.

Row | Molecule | tumor volume [1] [mm^3] | stimulation of tPA-mediated plasmin formation [2]
1 | B1 | 492±215 | 
2 | B2 | 1112±372 | ability to stimulate tPA-mediated plasmin formation
